Experimental findings from the supplement of paper PMC10567573 are described below.

The data set in a line: protein stability index of a GFP-peptide fusion (GPS, HEK-293T) (PSI 1-6); higher = more stable. The note with it: c terminus: a fixed tail appended.

± gives the standard deviation.
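Also: 24-mer peptide tiles fused after GFP, lentivirally expressed, FACS-sorted into six equal bins by GFP/DsRed ratio, decoded by Illumina sequencing, PSI is the read-weighted mean bin number.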

With FQSISLRKIQFNFPYFRSDRDKRD [CLCN6], the protein stability index (treatment: DMSO) was determined as 2.3 ± 0.34 and the protein stability index (treatment: MLN4924 1 uM, 8 h) came out at 2.75 ± 0.52.
Turning to YLTVVFEHDAWFIFFMAAFAFSNG [SLC29A1], the protein stability index is, setting by setting: (treatment: DMSO) 3.18 ± 0.41; (treatment: MLN4924 1 uM, 8 h) 2.92 ± 0.59.
For TPLLAASVTGHTNIVEYLIQEQPG [FEM1A] the same measures were 3.39 ± 0.17 and 3.67 ± 0.32.
As for FYDKQLKVLLSGATFLVTFGNSEK [ZFYVE21], the protein stability index was found to be 2.45 ± 0.67 (treatment: DMSO) and 2.54 ± 0.54 (treatment: MLN4924 1 uM, 8 h).
On the same counts, the results for GHPVGLALEAAVHVQKLSQECLKQ [TRIM14] are 3.07 ± 0.2 and 3.14 ± 0.28.
In the case of RHSFRKHLYLLRGLPGSGKTTLAR [N4BP2L1], the protein stability index came out at 2.5 ± 0.17 (treatment: DMSO) and 2.54 ± 0.37 (treatment: MLN4924 1 uM, 8 h).
On the same counts, the results for KAGIEQEGYWLPGDEISIKKKNTN [ZMYND11] are 4.5 ± 0.3 and 4.62 ± 0.35.
For QDTEVFSWSDNERSSSRINIPERA [FAM104B] the same measures were 4.62 ± 0.094 and 4.53 ± 0.067.
For TEQAAEYVPEKVKKAEKKLEENPY [CSTF3] the same measures were 5.52 ± 0.3 and 5.37 ± 0.14.
In the case of YARQHCPLKNPTFLDYVRPRSWTC [SOAT1], the protein stability index was 2.12 ± 0.46 (treatment: DMSO) and 2.14 ± 0.53 (treatment: MLN4924 1 uM, 8 h).
For EQLRREKIDLENTLEQEQEALVNR [CCDC6] the same measures were 5.2 ± 0.27 and 5.42 ± 0.1.
For CFLLTAMAYDQFLAICRPLTYSTR [OR3A1] the same measures were 2.89 ± 0.35 and 2.89 ± 0.69.
On the same counts, the results for ILVVTVQLILFGLSNQLAVTFREE [MCOLN1] are 3.02 ± 0.39 and 3.05 ± 0.23.
On to LDQLRFPNGVQLSPAEDFVLVAET [APMAP], for which the protein stability index (treatment: DMSO) came to 3.09 ± 0.23 and the protein stability index (treatment: MLN4924 1 uM, 8 h) was 3.27 ± 0.23.
On the same counts, the results for LKKDKKKEEKEDEISLEDLIERER [ZC3H15] are 5.47 ± 0.41 and 5.51 ± 0.13.
In the case of RSPLVSGDESSLLLNAASTVARPV [RHOBTB3], the protein stability index runs as follows: (treatment: DMSO) 4.31 ± 0.17; (treatment: MLN4924 1 uM, 8 h) 4.25 ± 0.26.
With GVSFHIDSAELEPGSQTAVKNSNR [FBXO34], the protein stability index was 4.71 ± 0.26 (treatment: DMSO) and 5.03 ± 0.38 (treatment: MLN4924 1 uM, 8 h).
For AETAGAIMAFFLCLGLALGAVFSF [SLC29A1] the same measures were 3.35 ± 0.66 and 3.03 ± 0.24.
With DFALINKLDIQCDLKTLSDDIKES [ATE1], the protein stability index turned out to be 4.15 ± 0.14 (treatment: DMSO) and 4.18 ± 0.39 (treatment: MLN4924 1 uM, 8 h).
On the same counts, the results for TIMQAVSQIRLNREHKETCEMDWS [TEKT4] are 2.3 ± 0.27 and 2.44 ± 0.21.
For AQDLTEAEGWHFFCFQGEATRKLA [SAT2] the same measures were 2.94 ± 0.36 and 3.32 ± 0.46.
For ASSQHSEGSRSSGSNRSGSDRRKE [DVL3] the same measures were 5.37 ± 0.16 and 5.52 ± 0.16.
In turn, GTLDNSKSMKPYNYCSAYESFYES [NEUROD6] registered a protein stability index (treatment: DMSO) of 3.02 ± 0.41 and a protein stability index (treatment: MLN4924 1 uM, 8 h) of 3.12 ± 0.35.
On the same counts, the results for GEKPFECRQRLIFEQTPALTKHEW [ZNF8] are 3.04 ± 0.85 and 2.93 ± 0.18.
For ECQLYPRRSQQQQVPVVDFQAELR [SNURF] the same measures were 4.3 ± 0.18 and 4.31 ± 0.084.
For DAPLHSVGYTTLVGNNHESWGWDL [SPSB1] the same measures were 2.9 ± 0.16 and 2.85 ± 0.25.
APRFSFNDPSGSEEADFLSAETGS [IRX6]: the protein stability index was found to be 5.36 ± 0.14 (treatment: DMSO) and 5.33 ± 0.24 (treatment: MLN4924 1 uM, 8 h).
On the same counts, the results for SVLQSVWMEVLVLGVAQRSLPLQD [ESRRA] are 3.62 ± 0.79 and 3.38 ± 0.57.
For the sequence IMSRVNAYQQGVGYQMLGNVVTIG [PHTF1], the protein stability index was 2.21 ± 0.48 (treatment: DMSO) and 2.31 ± 0.34 (treatment: MLN4924 1 uM, 8 h).
Regarding RKIQFNFPYFRSDRDKRDFVSAGA [CLCN6], the protein stability index was found to be 2.67 ± 0.16 (treatment: DMSO) and 2.76 ± 0.39 (treatment: MLN4924 1 uM, 8 h).
For ERGLKKIRLGIEGYPTYKEKVKKR [BTBD10] the same measures were 3.59 ± 0.3 and 3.66 ± 0.33.
On the same counts, the results for WTDSEVDSSCSGQPIHLWQFLKEL [SPDEF] are 2.93 ± 0.24 and 3.1 ± 0.39.
As to DATQEYKEKLQKCLEPLEQKLQEI [TRIM39], the protein stability index (treatment: DMSO) stood at 4.8 ± 0.055 and the protein stability index (treatment: MLN4924 1 uM, 8 h) was determined as 5.02 ± 0.18.
For GAHKDCQVAPLTHVFQRQKSELSD [TRIM55] the same measures were 4.73 ± 0.34 and 4.83 ± 0.16.
For IQLRRWQETRGELQCRSPPRLHGA [TBC1D10A] the same measures were 2.74 ± 0.23 and 2.85 ± 0.39.
As to LEEALYEYQPLQIETYGPHVPELE [MNAT1], the protein stability index stood at 3.25 ± 0.6 (treatment: DMSO) and 3.65 ± 0.47 (treatment: MLN4924 1 uM, 8 h).
Consider PSLFHLNTLKRENSSPRVMQRKQS [DLC1], for which the protein stability index worked out at 3.92 ± 0.16 (treatment: DMSO) and 4.2 ± 0.15 (treatment: MLN4924 1 uM, 8 h).
On the same counts, the results for CGSFYREPIILPCSHNLCQACARN [TRIM9] are 2.22 ± 0.25 and 2.19 ± 0.33.
For GLSPEEKEQLSNDRETQEGKPPTA [ELOA2] the same measures were 5.6 ± 0.22 and 5.31 ± 0.46.
On the same counts, the results for SQMSPLSLYGENSNSLSSAEPLKE [ATF6] are 5.01 ± 0.3 and 5.03 ± 0.22.
As to DSKIVVPPLPGKALKRQLPFRGDE [SNX12], the protein stability index stood at 4.35 ± 0.21 (treatment: DMSO) and 4.36 ± 0.1 (treatment: MLN4924 1 uM, 8 h).
Turning to DYIIRNTDRGNDNWLIKYDCPMDS [PI4K2A], the protein stability index runs as follows: (treatment: DMSO) 2.81 ± 0.25; (treatment: MLN4924 1 uM, 8 h) 2.88 ± 0.12.
For VENGDFNWIVPGKFLAFSGPHPKS [CDC14A] the same measures were 2.76 ± 0.41 and 2.92 ± 0.43.
For LRTSNGQPVKTAGEITQHNVTELL [DNAAF3] the same measures were 4.14 ± 0.23 and 4.33 ± 0.17.
On the same counts, the results for RGMDLSWESRTGDQYSYSSLVMGS [LCOR] are 2.65 ± 0.41 and 2.92 ± 0.28.
For the sequence PKAERLRWSPAQEESFRQMVVIHK [ZNF232], the protein stability index was 3.19 ± 0.31 (treatment: DMSO) and 3.25 ± 0.37 (treatment: MLN4924 1 uM, 8 h).
For ENAAFKDVALVLTVLLEEETLEAS [TOR1AIP2] the same measures were 2.31 ± 0.33 and 2.4 ± 0.34.
For GNSRSAPPTRGPPPSYGGSSRYDD [RBMX] the same measures were 4.94 ± 0.34 and 5.05 ± 0.15.
For the sequence NKRCKDKKKSILMKQLQQQQHSDK [ISL2], the protein stability index (treatment: DMSO) turned out to be 4.45 ± 0.18 and the protein stability index (treatment: MLN4924 1 uM, 8 h) worked out at 4.5 ± 0.12.
LEENPYDLDAWSILIREAQNQPID [CSTF3]: the protein stability index (treatment: DMSO) turned out to be 3.74 ± 0.32 and the protein stability index (treatment: MLN4924 1 uM, 8 h) is 3.85 ± 0.31.
For the sequence IKHVLQTFGPIPEFSRATAEKVNQ [CRYL1], the protein stability index is, setting by setting: (treatment: DMSO) 3.39 ± 0.44; (treatment: MLN4924 1 uM, 8 h) 3.43 ± 0.51.
For IYHLDGQETPYLVKLPLPAERVTL [DVL3] the same measures were 2.28 ± 0.24 and 2.34 ± 0.26.
For KRAPGEETEKEEEEEDREEEDENG [NEUROD6] the same measures were 5.6 ± 0.34 and 5.69 ± 0.43.
On the same counts, the results for ATLFFNPQESAILQLFHQDGTFSP [CLCN6] are 2.25 ± 0.42 and 2.29 ± 0.074.
For the sequence GLTFLLPFLFFGHFWQLFNALTLF [TMEM120A], the protein stability index worked out at 2.85 ± 0.11 (treatment: DMSO) and 2.63 ± 0.052 (treatment: MLN4924 1 uM, 8 h).
On the same counts, the results for QIQKYTDCLQFYVNSTLKELRRLF [RTN1] are 2.73 ± 0.37 and 2.55 ± 0.31.
For LVETAIQSLDEPGGATFLLTAKQL [TRIM63] the same measures were 2.75 ± 0.14 and 2.66 ± 0.45.
On the same counts, the results for GYRQQKAYIATQGPLAETTEDFWR [PTPRD] are 3.28 ± 0.22 and 3.36 ± 0.42.
For the sequence PALAPVPRNSCITCPQCHRSLILD [TRIM9], the protein stability index is 3.31 ± 0.3 (treatment: DMSO) and 3.37 ± 0.33 (treatment: MLN4924 1 uM, 8 h).
Take NLQELLELDSSSSLCVLVSTVGKL [CEP70]: the protein stability index was 2.29 ± 0.49 (treatment: DMSO) and 2.43 ± 0.47 (treatment: MLN4924 1 uM, 8 h).
For IIMWDIGGRKGRTLLLQGHHDKVQ [WDFY1] the same measures were 2.08 ± 0.55 and 2.2 ± 0.12.
For VDDLSVEWDAMGGKVQDIKAREKD [FSD1] the same measures were 5.41 ± 0.33 and 5.5 ± 0.43.
For VASAPLQPPVPSLSEVKPPPPPPP [TRADD] the same measures were 5.02 ± 0.15 and 4.71 ± 0.34.
On to HPGSGTKVQFNLQFTKPNASLGDV [SASS6], for which the protein stability index by setting is: (treatment: DMSO) 3.17 ± 0.44; (treatment: MLN4924 1 uM, 8 h) 3.23 ± 0.23.
For PNLTYVYPHTRIQSLVSILRTTVH [CLCN6] the same measures were 2.38 ± 0.51 and 2.23 ± 0.17.
As for SETPKSQVGTLLFRSRSRLTHLSL [CDC25B], the protein stability index runs as follows: (treatment: DMSO) 2.43 ± 0.12; (treatment: MLN4924 1 uM, 8 h) 2.53 ± 0.3.
For the sequence LLLPGIYTVSATAPGYDPETVTVT [CPN1], the protein stability index runs as follows: (treatment: DMSO) 2.16 ± 0.22; (treatment: MLN4924 1 uM, 8 h) 2.17 ± 0.31.
In the case of EAPALPAPAAPMVSKGAESSRSSE [BRD3], the protein stability index by setting is: (treatment: DMSO) 5.56 ± 0.32; (treatment: MLN4924 1 uM, 8 h) 5.73 ± 0.25.
For the sequence SFMMGQGGEAAHHTRSPYSTFYPP [NEUROD6], the protein stability index (treatment: DMSO) was 2.66 ± 0.39 and the protein stability index (treatment: MLN4924 1 uM, 8 h) worked out at 2.84 ± 0.25.
Take GAGAGAPGGGRLLLSTSLDAKDEL [INTS3]: the protein stability index (treatment: DMSO) is 5.04 ± 0.27 and the protein stability index (treatment: MLN4924 1 uM, 8 h) stood at 5.08 ± 0.068.
For FSINSRLASSLGNLNAATDDPENK [CDC14A] the same measures were 5.08 ± 0.26 and 5.1 ± 0.39.
For GCSAVLSGGSSSSFRAGSKGLSGG [KRT71] the same measures were 3.45 ± 0.14 and 3.48 ± 0.2.
